{"source": "patent US20240052381A1", "about": "“BIOSYNTHESIS OF VANILLIN FROM ISOEUGENOL” (BASF SE, priority 2020, published 2024)", "assay": "In vitro enzyme assay: formation of vanillin with isoeugenol as the substrate", "format": "biochemical", "settings": "purified recombinant protein; 10 mM isoeugenol, pH 7.0, 30° C., 10 min; negative control heat-denatured enzyme gave no vanillin", "protocol": "The enzyme activity of the putative isoeugenol monooxygenase was assayed by measuring the formation of vanillin with isoeugenol as the substrate. The reaction mixture contained 10 mM isoeugenol, 100 mM potassium phosphate buffer (pH 7.0), 10% (v/v) ethanol and an appropriate amount of enzyme, in a total volume of 1 ml. The reaction was started, by adding isoeugenol as ethanol solution, carried out at 30° C. for 10 min with reciprocal shaking (160 strokes min^−1) and stopped with the addition of 1 ml of methanol. After centrifugation at […], the supernatant was analyzed by HPLC for the determination of isoeugenol and vanillin and vanillyl alcohol. VpIEM enzyme treated in boiling water for 5 minutes was used as the negative control.\nHPLC analysis of isoeugenol and vanillin was carried out with a Vanquish Ultimate 3000 system. Intermediates were separated by reverse-phase chromatography on a Dionex Acclaim 120 C18 column (particle size 3 μm; 150 by 2.1 mm) with a gradient of 0.15% (volume/volume) acetic acid (eluant A) and methanol (eluant B) in a range of 60 to 100% (vol/vol) eluant B and at a flow rate of 0.4 ml/min. For quantification, all intermediates were calibrated with external standards. The compounds were identified by their retention times, as well as the corresponding spectra, which were identified with a diode array detector in the system."}
{"molecule": "VpIEM: putative isoeugenol monooxygenase from Violaceomyces palustris, expressed in E. coli and purified (protein, listed as Violaceomyces paulstris, (1)..(551) Amino Acid Sequence of VpIEM) MAPAPTVQDAAPVAVAVPSKATNKGSFVHPTDILPSGWPTATDLSGGAQPRRFEGTIYDVMVRGTIPKELHGTFYRIMPDYAEAPTYYKGGELNAPIDGDGTVAAFRFKDGNVDYRQRFVETDRFKVERRARKSMYGLYRNPYTHHPCVRQTVDSTANTNVVMHAGRFLAMKENGNAYELDPHTLKTLGYNPFKLPSKTMTAHPKQDAVTGNLVGFGYEAKGLATKDVYYFEVDTQGNIVHDLWLEAPWCAFIHDCALTPNYLVLMLWPFEADIERMKAGGHHWAYDYDKPITWITIPRGAKSKDEVKYWYWKNGMPIHTAAGYEDEKGRIIIDSSLVHGNAFPFFPPDSEEQRKRQEADGTPIAQFVRWTIDPSKDPNERLPDPEVVLDTPSEFPQIDNRFMGKEYSSAFINVFMPDRSDTGKNVFQGLNGLCHYRRKEGTADFYYAGDNCLIQEPVFSPRSKDAPEGDGFVLAIVDRLDANRSEVVIIDTRDFTKAVAAVQLPFAIRSGIHGQWIQGNTIPDFDTRGLVDLPKEEHWAPPEASAYDPNM", "values": [{"measurement": "conversion of isoeugenol to vanillin (enzyme activity, HPLC)", "value": "able to catalyze the conversion of isoeugenol to vanillin"}]}
